In patent US20250242041A1 (Seagen, published 2025):

Columns and labels:
[1] = molecular target: T1, cyno αvβ6 on 293F:cynoβ6 cells (human;Macaca fascicularis, UniProt P06756 31-1048; A0A2K5TZ36 22-787); test: competition binding on 293F cells
T1 chain 1: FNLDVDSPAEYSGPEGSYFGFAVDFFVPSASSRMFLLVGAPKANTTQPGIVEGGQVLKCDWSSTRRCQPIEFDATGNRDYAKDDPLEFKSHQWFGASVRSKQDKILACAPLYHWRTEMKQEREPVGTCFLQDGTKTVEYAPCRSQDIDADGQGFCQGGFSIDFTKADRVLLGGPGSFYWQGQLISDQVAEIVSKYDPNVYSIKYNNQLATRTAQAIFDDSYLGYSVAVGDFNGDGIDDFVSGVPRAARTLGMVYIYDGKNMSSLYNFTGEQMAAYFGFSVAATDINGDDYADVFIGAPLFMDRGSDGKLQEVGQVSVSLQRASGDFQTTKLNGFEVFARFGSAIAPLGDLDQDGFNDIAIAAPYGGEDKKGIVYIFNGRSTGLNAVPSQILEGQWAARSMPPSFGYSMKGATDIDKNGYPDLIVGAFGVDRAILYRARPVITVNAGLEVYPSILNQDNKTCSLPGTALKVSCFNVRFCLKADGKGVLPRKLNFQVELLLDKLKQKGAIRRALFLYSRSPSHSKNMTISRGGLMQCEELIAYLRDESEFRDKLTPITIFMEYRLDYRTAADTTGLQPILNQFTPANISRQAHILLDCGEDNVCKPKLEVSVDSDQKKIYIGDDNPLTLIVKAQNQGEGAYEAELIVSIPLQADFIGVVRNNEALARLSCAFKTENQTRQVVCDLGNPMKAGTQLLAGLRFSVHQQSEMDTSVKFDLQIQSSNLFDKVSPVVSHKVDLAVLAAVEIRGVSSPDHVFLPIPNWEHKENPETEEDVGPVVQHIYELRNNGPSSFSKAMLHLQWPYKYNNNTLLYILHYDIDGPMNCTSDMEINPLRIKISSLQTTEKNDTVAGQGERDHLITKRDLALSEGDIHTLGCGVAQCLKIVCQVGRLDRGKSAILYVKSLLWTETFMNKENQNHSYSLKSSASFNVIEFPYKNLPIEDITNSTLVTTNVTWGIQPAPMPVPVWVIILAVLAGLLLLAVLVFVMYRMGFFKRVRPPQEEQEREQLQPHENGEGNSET
T1 chain 2: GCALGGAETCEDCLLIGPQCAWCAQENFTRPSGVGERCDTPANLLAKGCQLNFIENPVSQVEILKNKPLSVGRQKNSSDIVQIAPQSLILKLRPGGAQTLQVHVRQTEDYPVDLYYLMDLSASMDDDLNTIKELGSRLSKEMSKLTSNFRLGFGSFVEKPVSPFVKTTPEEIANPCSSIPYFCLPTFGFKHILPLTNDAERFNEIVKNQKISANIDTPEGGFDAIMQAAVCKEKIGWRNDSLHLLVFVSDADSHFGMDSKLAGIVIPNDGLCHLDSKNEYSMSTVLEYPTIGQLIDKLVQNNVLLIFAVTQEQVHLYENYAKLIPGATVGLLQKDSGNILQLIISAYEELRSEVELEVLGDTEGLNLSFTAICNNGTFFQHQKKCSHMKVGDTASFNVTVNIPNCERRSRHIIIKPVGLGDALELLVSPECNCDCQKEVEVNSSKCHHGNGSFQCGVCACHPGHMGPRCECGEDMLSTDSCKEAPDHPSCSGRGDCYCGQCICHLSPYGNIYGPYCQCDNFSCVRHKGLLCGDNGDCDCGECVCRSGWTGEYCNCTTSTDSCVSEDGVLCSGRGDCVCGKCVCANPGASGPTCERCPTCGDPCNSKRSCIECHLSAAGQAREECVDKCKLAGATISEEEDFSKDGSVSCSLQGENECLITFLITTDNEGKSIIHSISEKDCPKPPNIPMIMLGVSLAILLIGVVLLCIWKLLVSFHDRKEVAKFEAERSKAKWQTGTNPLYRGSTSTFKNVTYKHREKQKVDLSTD

[2] = molecular target: T1, cyno αvβ6 on 293F:cynoβ6 cells; test: saturation binding on 293F cells; AF647-labeled
[3] = molecular target: T2, human αvβ6 on 293F:huβ6 cells (human, UniProt P06756 31-1048; P18564 22-788); test: saturation binding on 293F cells; AF647-labeled
T2 chain 1: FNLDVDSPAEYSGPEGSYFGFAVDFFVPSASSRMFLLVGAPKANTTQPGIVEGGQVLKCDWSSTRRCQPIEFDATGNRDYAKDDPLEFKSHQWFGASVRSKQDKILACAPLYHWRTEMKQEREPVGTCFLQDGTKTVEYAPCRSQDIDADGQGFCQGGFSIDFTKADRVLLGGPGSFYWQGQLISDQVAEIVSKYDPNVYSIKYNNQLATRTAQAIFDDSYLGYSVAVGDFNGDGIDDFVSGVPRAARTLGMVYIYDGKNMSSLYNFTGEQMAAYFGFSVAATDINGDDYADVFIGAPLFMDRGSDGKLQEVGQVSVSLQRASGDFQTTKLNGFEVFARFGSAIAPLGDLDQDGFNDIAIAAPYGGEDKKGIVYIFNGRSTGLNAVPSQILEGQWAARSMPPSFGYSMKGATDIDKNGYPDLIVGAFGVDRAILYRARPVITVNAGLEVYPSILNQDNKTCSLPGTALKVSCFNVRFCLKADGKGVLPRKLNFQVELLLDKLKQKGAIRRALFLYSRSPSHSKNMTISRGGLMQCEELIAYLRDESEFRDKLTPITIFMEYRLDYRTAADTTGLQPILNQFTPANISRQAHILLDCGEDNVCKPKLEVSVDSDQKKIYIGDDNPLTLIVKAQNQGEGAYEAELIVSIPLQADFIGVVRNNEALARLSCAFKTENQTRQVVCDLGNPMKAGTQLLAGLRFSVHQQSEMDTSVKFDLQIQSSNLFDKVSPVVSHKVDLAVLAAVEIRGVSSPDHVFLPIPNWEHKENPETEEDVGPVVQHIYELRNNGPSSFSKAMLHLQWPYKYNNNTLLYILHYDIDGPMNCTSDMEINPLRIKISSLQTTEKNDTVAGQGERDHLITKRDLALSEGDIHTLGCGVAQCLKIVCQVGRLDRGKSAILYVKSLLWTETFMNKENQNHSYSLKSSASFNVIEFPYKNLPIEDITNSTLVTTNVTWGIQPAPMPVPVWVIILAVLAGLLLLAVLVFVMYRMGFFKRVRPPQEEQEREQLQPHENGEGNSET
T2 chain 2: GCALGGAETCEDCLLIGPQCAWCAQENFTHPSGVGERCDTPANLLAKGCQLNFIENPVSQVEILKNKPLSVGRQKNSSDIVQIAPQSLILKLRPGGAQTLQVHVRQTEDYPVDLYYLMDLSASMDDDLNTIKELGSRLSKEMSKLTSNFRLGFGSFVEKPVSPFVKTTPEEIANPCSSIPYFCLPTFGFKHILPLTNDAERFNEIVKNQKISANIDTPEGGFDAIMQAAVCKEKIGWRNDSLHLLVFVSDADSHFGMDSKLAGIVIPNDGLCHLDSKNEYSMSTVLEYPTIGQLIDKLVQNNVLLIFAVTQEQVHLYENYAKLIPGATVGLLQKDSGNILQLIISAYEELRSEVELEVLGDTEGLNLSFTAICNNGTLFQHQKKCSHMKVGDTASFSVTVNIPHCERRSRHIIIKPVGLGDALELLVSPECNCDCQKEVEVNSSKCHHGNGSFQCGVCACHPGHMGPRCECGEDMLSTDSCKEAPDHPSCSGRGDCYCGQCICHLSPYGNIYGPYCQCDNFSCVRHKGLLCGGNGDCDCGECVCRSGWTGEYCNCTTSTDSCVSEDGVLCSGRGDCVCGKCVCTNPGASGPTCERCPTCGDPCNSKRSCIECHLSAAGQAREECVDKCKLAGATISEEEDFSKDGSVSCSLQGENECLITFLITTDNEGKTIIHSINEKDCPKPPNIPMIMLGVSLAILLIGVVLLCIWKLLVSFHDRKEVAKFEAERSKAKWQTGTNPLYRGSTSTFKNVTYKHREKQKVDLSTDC

B1: h2A2 HCLG humanized antibody (antibody, human IgG1, kappa, V domains shown)
VH: QFQLVQSGAEVKKPGASVKVSCKASGYSFTDYNVNWVRQAPGQGLEWIGVINPKYGTTRYNQKFKGRATLTVDKSTSTAYMELSSLRSEDTAVYYCTRGLNAWDYWGQGTLVTVSS
VL: DIQMTQSPSSLSASVGDRVTITCGASENIYGALNWYQQKPGKAPKLLIYGATNLEDGVPSRFSGSGSGRDYTFTISSLQPEDIATYYCQNVLTTPYTFGQGTKLEIKR
notes: Labelled with AlexaFluor-647 in the saturation assay; also called humanized 2A2 HCLG
B1 showed an EC50 [1] of 3000 pM, an EC50 [2] of 200 pM and an EC50 [3] of 300 pM.
